The numbers were not newly measured in publication PMC8622359, which cites them from elsewhere.

Read-outs that look alike come from different tables or passages of the source.

Series [1] addresses HsSFI1 (R17) (Homo sapiens). The series can be described thus: given as Ka.
Series [2] addresses XPC (Homo sapiens). The series can be described thus: given as Ka.
The next series has as its target PRP40A (Homo sapiens) (UniProt O75400). Briefly: given as Ka.
Series [3] addresses HsSFI1 (R17) (Homo sapiens). Briefly: given as Ka. The source holds these as a separate data set.
The target of series [4] is XPC (Homo sapiens). Briefly: given as Ka. This is another data set of the same source.
For series [5], the target named is SAC3 (Saccharomyces cerevisiae) (UniProt P46674).
For series [6] the target is unchanged. The source holds these as a separate data set.
Series [7] deals with KAR1 (Saccharomyces cerevisiae) (UniProt P11927). The series can be described thus: given as Ka.
The target of series [8] is ScSFI1 (R19) (Saccharomyces cerevisiae). The series can be described thus: given as Ka.
ScSFI1 (R19) (Saccharomyces cerevisiae), sequence (Q12369 710-729): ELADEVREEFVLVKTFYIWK
The target of series [9] is ScSFI1 (R18) (Saccharomyces cerevisiae). The series can be described thus: given as Ka.
ScSFI1 (R18) (Saccharomyces cerevisiae), sequence (Q12369 680-699): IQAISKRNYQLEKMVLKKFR
Series [10] concerns the target SAC3 (Saccharomyces cerevisiae) (UniProt P46674). Briefly: given as Ka.
The target of series [11] is ScSFI1 (R19) (Saccharomyces cerevisiae). The series can be described thus: given as Ka. This is another data set of the same source.
Series [12] has as its target KAR1 (Saccharomyces cerevisiae) (UniProt P11927). Briefly: given as Ka. The source holds these as a separate data set.
Series [13] concerns the target ScSFI1 (R18) (Saccharomyces cerevisiae). Briefly: given as Ka. This is another data set of the same source.
Series [14] concerns the target SAC3 (Saccharomyces cerevisiae). The series can be described thus: given as Ka.
In series [15] the target is HsSFI1 (R18) (Homo sapiens). The series can be described thus: given as Ka.
HsSFI1 (R18) (Homo sapiens), sequence (A8K8P3 670-692): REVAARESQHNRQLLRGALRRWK
In series [16] the target is Transducin β (Homo sapiens) (UniProt P62873). The series can be described thus: given as Ka.
Series [17] addresses HsSFI1 (R18) (Homo sapiens). Briefly: given as Ka. The source holds these as a separate data set.
The target of series [18] is SAC3B (Arabidopsis thaliana) (UniProt F4JAU2). Briefly: given as Ka.
SAC3B (Arabidopsis thaliana), sequence (F4JAU2 1050-1075): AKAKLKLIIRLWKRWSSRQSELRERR
The target in series [19] is AtRAD4 (Arabidopsis thaliana).
The target of series [20] is AtRAD4 (Arabidopsis thaliana). This is another data set of the same source.
The target in series [21] is SAC3B (Arabidopsis thaliana) (UniProt F4JAU2). The series can be described thus: given as Ka. The source holds these as a separate data set.

CDC31, sequence (P06704 whole entry): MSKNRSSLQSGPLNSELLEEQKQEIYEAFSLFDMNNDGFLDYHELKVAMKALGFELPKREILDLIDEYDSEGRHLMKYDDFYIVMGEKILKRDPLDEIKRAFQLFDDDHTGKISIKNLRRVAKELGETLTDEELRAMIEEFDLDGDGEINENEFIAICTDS
AtCEN2, sequence (O23184 whole entry): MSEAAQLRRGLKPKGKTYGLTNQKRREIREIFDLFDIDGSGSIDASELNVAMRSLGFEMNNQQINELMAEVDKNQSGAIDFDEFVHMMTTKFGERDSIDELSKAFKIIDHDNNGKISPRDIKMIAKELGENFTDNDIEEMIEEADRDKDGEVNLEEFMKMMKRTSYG
HsCEN1, sequence (Q12798 whole entry): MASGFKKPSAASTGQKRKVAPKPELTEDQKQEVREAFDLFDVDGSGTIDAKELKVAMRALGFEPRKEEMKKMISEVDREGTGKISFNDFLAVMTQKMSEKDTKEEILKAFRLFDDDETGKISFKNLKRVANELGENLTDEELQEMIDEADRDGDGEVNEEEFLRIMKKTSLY
HsCEN2, sequence (P41208 2-172): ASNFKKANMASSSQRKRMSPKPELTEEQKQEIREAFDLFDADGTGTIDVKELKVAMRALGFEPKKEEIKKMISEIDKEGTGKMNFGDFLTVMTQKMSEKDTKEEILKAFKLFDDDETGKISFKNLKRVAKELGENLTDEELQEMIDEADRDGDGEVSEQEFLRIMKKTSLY
HsSFI1 (R17) (Homo sapiens), sequence (A8K8P3 641-660): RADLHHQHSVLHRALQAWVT
PRP40A (Homo sapiens), sequence (O75400 524-556): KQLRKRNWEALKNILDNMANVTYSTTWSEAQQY

For HsCEN2 (from UniProt P41208), the dissociation constant Kd is 4 µM in series [1]; 0.125 µM with XPC (Homo sapiens) [2]; 0.278 µM with PRP40A (Homo sapiens); 0.154 µM in series [3]; 0.00588 µM in the series with XPC (Homo sapiens) [4].

In the case of CDC31 (from UniProt P06704), the Kd is 0.045 µM in series [5]; 0.677 µM in series [6]; 2.27 µM in [7]; 0.0286 µM in [8]; 4.17 µM in series [9]; 0.667 µM in series [10]. In addition, the Kd in series [11] was 5.26 µM; in series [12] it was 0.0435 µM; in series [13] it was 0.1 µM; in [14], 0.0455 µM.

For HsCEN1 (from UniProt Q12798), the Kd in series [15] was 333 µM; in series [16] it was 5.88 µM; in series [17] it was 0.831 µM.

Take AtCEN2 (from UniProt O23184): the Kd in series [18] was 2.44 µM; in series [19], 0.054 µM; in series [20], 8 µM; in [21], 0.667 µM.
